Measured values published in the array DNA melting data of Ke et al..

Experiment: melting temperature; melt of duplexes
Conditions: sodium 0.0675 M; strand 1 µM

Point of comparison: “CGACGTGCTTCATGTGCTG+CAGCACATGCTGCACGTCG ((((((((..(((((((((+)))))))))..))))))))”, Tm 53.1 °C. Against it:
- CGACGTGCGCCATGTGCTG+CAGCACATTCGGCACGTCG ((((((((...((((((((+))))))))...)))))))) — lower, 47.5 °C
- CGACGTGCGAAATGTGCTG+CAGCACATGTCGCACGTCG ((((((((((.((((((((+)))))))).)))))))))) — higher, 58.9 °C
- CGACGTGCAGAATGTGCTG+CAGCACATAAAGCACGTCG ((((((((...((((((((+))))))))...)))))))) — lower, 50.5 °C
- CGACGTGCTGTATGTGCTG+CAGCACATAGGGCACGTCG ((((((((..(((((((((+)))))))))..)))))))) — lower, 52.2 °C
- CGACGTGCCTTATGTGCTG+CAGCACATGGGGCACGTCG (((((((((..((((((((+))))))))..))))))))) — higher, 56.1 °C
- CGACGTGCTCGATGTGCTG+CAGCACATTGTGCACGTCG ((((((((.(.((((((((+)))))))).).)))))))) — lower, 51.5 °C
- CGACGTGCACTATGTGCTG+CAGCACATTTCGCACGTCG ((((((((...((((((((+))))))))...)))))))) — lower, 43.1 °C
- CGACGTGCAAAATGTGCTG+CAGCACATCTAGCACGTCG ((((((((.(.((((((((+)))))))).).)))))))) — lower, 49.5 °C
- CGACGTGCCCAATGTGCTG+CAGCACATCGTGCACGTCG ((((((((.(.((((((((+)))))))).).)))))))) — lower, 45.8 °C
- CGACGTGCCACATGTGCTG+CAGCACATCCGGCACGTCG (((((((((..((((((((+))))))))..))))))))) — lower, 52.6 °C
- CGACGTGCCGTATGTGCTG+CAGCACATTTTGCACGTCG ((((((((...((((((((+))))))))...)))))))) — lower, 47.5 °C
- CGACGTGCTCAATGTGCTG+CAGCACATTAAGCACGTCG (((((((((.(((((((((+))))))))).))))))))) — higher, 54.4 °C
- CGACGTGCGGCATGTGCTG+CAGCACATGATGCACGTCG ((((((((..(((((((((+)))))))))..)))))))) — higher, 58.7 °C
- CGACGTGCCTAATGTGCTG+CAGCACATTCCGCACGTCG ((((((((..(((((((((+)))))))))..)))))))) — lower, 49.7 °C
- CGACGTGCCTAATGTGCTG+CAGCACATTTTGCACGTCG ((((((((..(((((((((+)))))))))..)))))))) — lower, 51.1 °C
- CGACGTGCCTTATGTGCTG+CAGCACATCAAGCACGTCG ((((((((.(.((((((((+)))))))).).)))))))) — lower, 48.8 °C
- CGACGTGCCGCATGTGCTG+CAGCACATAGTGCACGTCG ((((((((...((((((((+))))))))...)))))))) — lower, 46.8 °C
- CGACGTGCAAAATGTGCTG+CAGCACATCAGGCACGTCG ((((((((...((((((((+))))))))...)))))))) — lower, 49.4 °C
- CGACGTGCTCGATGTGCTG+CAGCACATTCAGCACGTCG (((((((((..((((((((+))))))))..))))))))) — lower, 51.9 °C
- CGACGTGCCAAATGTGCTG+CAGCACATCACGCACGTCG ((((((((...((((((((+))))))))...)))))))) — lower, 47.3 °C
- CGACGTGCCTCATGTGCTG+CAGCACATCTGGCACGTCG (((((((((..((((((((+))))))))..))))))))) — lower, 52.7 °C
- CGACGTGCCCGATGTGCTG+CAGCACATTCGGCACGTCG (((((((((..((((((((+))))))))..))))))))) — higher, 54.9 °C
- CGACGTGCCAGATGTGCTG+CAGCACATAGGGCACGTCG (((((((((..((((((((+))))))))..))))))))) — higher, 55.8 °C
- CGACGTGCAGAATGTGCTG+CAGCACATCGTGCACGTCG (((((((((..((((((((+))))))))..))))))))) — lower, 49 °C
- CGACGTGCTATATGTGCTG+CAGCACATAAAGCACGTCG (((((((((.(((((((((+))))))))).))))))))) — higher, 55.6 °C
- CGACGTGCAACATGTGCTG+CAGCACATGAAGCACGTCG ((((((((..(((((((((+)))))))))..)))))))) — higher, 54.3 °C
- CGACGTGCGTAATGTGCTG+CAGCACATACCGCACGTCG (((((((((..((((((((+))))))))..))))))))) — higher, 54.2 °C
- CGACGTGCAAGATGTGCTG+CAGCACATCCTGCACGTCG (((((((((.(((((((((+))))))))).))))))))) — higher, 56.5 °C
- CGACGTGCAGCATGTGCTG+CAGCACATGACGCACGTCG ((((((((..(((((((((+)))))))))..)))))))) — lower, 52 °C
- CGACGTGCCCTATGTGCTG+CAGCACATAGAGCACGTCG ((((((((.((((((((((+)))))))))).)))))))) — higher, 55.6 °C
- CGACGTGCTGCATGTGCTG+CAGCACATTTAGCACGTCG (((((((((..((((((((+))))))))..))))))))) — lower, 51 °C
- CGACGTGCTGCATGTGCTG+CAGCACATTGAGCACGTCG (((((((((..((((((((+))))))))..))))))))) — lower, 52.2 °C
- CGACGTGCTAGATGTGCTG+CAGCACATTTTGCACGTCG ((((((((.(.((((((((+)))))))).).)))))))) — lower, 52 °C
- CGACGTGCGAGATGTGCTG+CAGCACATTCTGCACGTCG ((((((((...((((((((+))))))))...)))))))) — lower, 52.9 °C
- CGACGTGCCACATGTGCTG+CAGCACATGTCGCACGTCG ((((((((.((((((((((+)))))))))).)))))))) — higher, 56.4 °C
- CGACGTGCGCCATGTGCTG+CAGCACATATAGCACGTCG ((((((((...((((((((+))))))))...)))))))) — lower, 52.4 °C
- CGACGTGCGGTATGTGCTG+CAGCACATGTCGCACGTCG (((((((((..((((((((+))))))))..))))))))) — higher, 57.1 °C
- CGACGTGCAAAATGTGCTG+CAGCACATATGGCACGTCG ((((((((.(.((((((((+)))))))).).)))))))) — lower, 50.3 °C
- CGACGTGCCGGATGTGCTG+CAGCACATGCTGCACGTCG ((((((((.(.((((((((+)))))))).).)))))))) — lower, 51.3 °C
- CGACGTGCCGCATGTGCTG+CAGCACATGTCGCACGTCG ((((((((..(((((((((+)))))))))..)))))))) — higher, 54.3 °C
- CGACGTGCGTTATGTGCTG+CAGCACATTACGCACGTCG ((((((((((.((((((((+)))))))).)))))))))) — higher, 58.6 °C
- CGACGTGCAGTATGTGCTG+CAGCACATGGCGCACGTCG ((((((((...((((((((+))))))))...)))))))) — lower, 50.2 °C
- CGACGTGCAGCATGTGCTG+CAGCACATAACGCACGTCG ((((((((...((((((((+))))))))...)))))))) — lower, 47.6 °C
- CGACGTGCTATATGTGCTG+CAGCACATGCAGCACGTCG (((((((((..((((((((+))))))))..))))))))) — lower, 52.5 °C
- CGACGTGCCTCATGTGCTG+CAGCACATTGAGCACGTCG ((((((((...((((((((+))))))))...)))))))) — lower, 51.4 °C
- CGACGTGCGTTATGTGCTG+CAGCACATCAGGCACGTCG ((((((((.(.((((((((+)))))))).).)))))))) — lower, 49.9 °C
- CGACGTGCAGGATGTGCTG+CAGCACATAAGGCACGTCG ((((((((...((((((((+))))))))...)))))))) — lower, 50.8 °C
- CGACGTGCCGCATGTGCTG+CAGCACATCAGGCACGTCG (((((((((..((((((((+))))))))..))))))))) — higher, 55.5 °C
- CGACGTGCCGAATGTGCTG+CAGCACATCCAGCACGTCG ((((((((.(.((((((((+)))))))).).)))))))) — lower, 49.8 °C
- CGACGTGCGCGATGTGCTG+CAGCACATAGTGCACGTCG ((((((((.(.((((((((+)))))))).).)))))))) — higher, 53.7 °C
- CGACGTGCACCATGTGCTG+CAGCACATGGAGCACGTCG ((((((((.((((((((((+)))))))))).)))))))) — higher, 58.8 °C
- CGACGTGCTGAATGTGCTG+CAGCACATGGTGCACGTCG ((((((((...((((((((+))))))))...)))))))) — lower, 50.9 °C
- CGACGTGCCGGATGTGCTG+CAGCACATAGGGCACGTCG (((((((((..((((((((+))))))))..))))))))) — higher, 55.9 °C
- CGACGTGCTCGATGTGCTG+CAGCACATGTAGCACGTCG (((((((((..((((((((+))))))))..))))))))) — lower, 52.3 °C
- CGACGTGCCAAATGTGCTG+CAGCACATTCGGCACGTCG (((((((((.(((((((((+))))))))).))))))))) — higher, 57.5 °C
- CGACGTGCTCAATGTGCTG+CAGCACATTGCGCACGTCG ((((((((.((((((((((+)))))))))).)))))))) — higher, 56.6 °C
- CGACGTGCGCAATGTGCTG+CAGCACATGAGGCACGTCG ((((((((...((((((((+))))))))...)))))))) — lower, 52.4 °C
- CGACGTGCGGGATGTGCTG+CAGCACATTAGGCACGTCG ((((((((...((((((((+))))))))...)))))))) — lower, 51.9 °C
- CGACGTGCTGGATGTGCTG+CAGCACATCCTGCACGTCG ((((((((.((((((((((+)))))))))).)))))))) — higher, 61.2 °C
- CGACGTGCCTTATGTGCTG+CAGCACATAGAGCACGTCG ((((((((..(((((((((+)))))))))..)))))))) — lower, 51.8 °C
- CGACGTGCTGGATGTGCTG+CAGCACATTGGGCACGTCG ((((((((...((((((((+))))))))...)))))))) — lower, 52 °C
- CGACGTGCCACATGTGCTG+CAGCACATCTCGCACGTCG ((((((((.(.((((((((+)))))))).).)))))))) — lower, 46.8 °C
- CGACGTGCACTATGTGCTG+CAGCACATTACGCACGTCG ((((((((...((((((((+))))))))...)))))))) — lower, 43.6 °C
- CGACGTGCAGCATGTGCTG+CAGCACATTGCGCACGTCG ((((((((...((((((((+))))))))...)))))))) — lower, 52.5 °C
- CGACGTGCCAAATGTGCTG+CAGCACATGACGCACGTCG ((((((((...((((((((+))))))))...)))))))) — lower, 47.5 °C
- CGACGTGCCGAATGTGCTG+CAGCACATTCCGCACGTCG ((((((((.((((((((((+)))))))))).)))))))) — higher, 56 °C
- CGACGTGCTGGATGTGCTG+CAGCACATGGAGCACGTCG (((((((((..((((((((+))))))))..))))))))) — higher, 53.2 °C
- CGACGTGCAAAATGTGCTG+CAGCACATACAGCACGTCG ((((((((...((((((((+))))))))...)))))))) — lower, 49.7 °C
- CGACGTGCAGAATGTGCTG+CAGCACATTGGGCACGTCG ((((((((..(((((((((+)))))))))..)))))))) — higher, 53.8 °C
- CGACGTGCTAAATGTGCTG+CAGCACATCTTGCACGTCG ((((((((.(.((((((((+)))))))).).)))))))) — lower, 50.1 °C
- CGACGTGCGGTATGTGCTG+CAGCACATAGCGCACGTCG (((((((((.(((((((((+))))))))).))))))))) — higher, 62.5 °C
